Legend:
[1] = target: T1, Myc-TPL-2 MEK kinase activity (Rattus norvegicus, UniProt Q63562); assay: In vitro MEK kinase assay with GST-MEK1(K207A) substrate, Myc-TPL-2; type: biochemical; conditions: equivalent molar concentrations to p105498-969
T1 construct: made in house; host or cells: HEK 293 cells, transient transfection, anti-Myc immunoprecipitation
Experimental: Myc-TPL-2 or Myc-TPL-2ΔC were isolated by immunoprecipitation from lysates of transiently transfected 293 cells, as described above. immunoprecipitates were washed four times in Buffer A, followed by two washes in kinase buffer (50 mM Tris-pH7.5, 150 mM NaCl, 5 mM β-glycerophosphate, 2 mM dithiothreitol, 0.1 mM sodium vanadate, 10 mM MgCl2, 1 mM EGTA, 0.01% Brij35). Beads were then resuspended in 50μl of kinase buffer plus the indicated amounts of recombinant p105 protein and incubated at 4° C. for 30 min. […] The supernatant was removed, mixed with an equal volume of 2×sample buffer, Western blotted after 8%-acrylamide SDS-PAGE and probed with anti-phospho-MEK-½ antibody. Immunoprecipitated Myc-TPL-2 or Myc-TPL-2ΔC was eluted with Laemlli sample buffer from the remaining anti-Myc mAb beads and quantified by Western blotting.
Only a small fraction of over-expressed Myc-TPL-2 is associated with p105, presumably due to titration of endogenous p105 protein. The effect of p105 binding on Myc-TPL-2 MEK kinase activity was investigated by incubation of TPL-2 imnmunoprecipitates with recombinant p105498-969 protein prior to in vitro kinase assay. MEK phosphorylation was assayed by Western blotting with anti-phospho-MEK-½ antibody. Control experiments confirmed that p105498-969 protein bound to TPL-2 in vitro. […]

[2] = target: T2, TPL-2 C-terminus (TPL-2398-467 peptide) (Rattus norvegicus, UniProt Q63562); assay: Surface plasmon resonance (BIAcore) binding to immobilized TPL-2 C-terminal peptide; conditions: biotinylated TPL-2398-467 on Streptavidin sensor surface, 25° C.
T2 construct: a synthetic peptide corresponding to the C-terminus of TPL-2 (residues 398-467); made in house; host or cells: chemical peptide synthesis
T2 sequence (Q63562 398-467): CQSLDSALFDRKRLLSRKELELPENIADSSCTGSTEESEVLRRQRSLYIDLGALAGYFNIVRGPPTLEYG
Experimental: Interaction between the TPL-2 C-terminus and recombinant p105 proteins was measured by surface plasmon resonance using the BIAcore system (BIAcore AB, Uppsala, Sweden; (Szabo, A., et al. (1995) Curr. Opin. Struct. biol. 5: 699-705)). The C-terminal 70 amino acids of TPL-2 (TPL-2398-467) were synthesised as a biotinylated peptide (conjugated to the equivalent of Cys398 of full length TPL-2) and immobilized on a Streptavidin-coated sensor surface (Sensorchip SA, BIAcore AB). Recombinant p105 proteins were then injected at different concentrations and resonance signals monitored. Dissociation at 25° C. was measured by flushing the TPL-2/p105 complexes with HBS-P buffer (10 MM HEPES-pH7.4, 150 mM NaCl, 0.005% (v/v) polysorbate 20; BIAcore AB). Data were evaluated using BIAevaluation software, version 3.0.2.
(5.3.b) In order to obtain corroborating evidence for the TPL-2 C-terminus binding site on p105, surface plasmon resonance experiments were carried out using the panel of recombinant p105 proteins including p105 1-969, p105 498-969, p105 498-806, p105 497-782 and p105 541-802.

T1 sequence (Q63562 whole entry): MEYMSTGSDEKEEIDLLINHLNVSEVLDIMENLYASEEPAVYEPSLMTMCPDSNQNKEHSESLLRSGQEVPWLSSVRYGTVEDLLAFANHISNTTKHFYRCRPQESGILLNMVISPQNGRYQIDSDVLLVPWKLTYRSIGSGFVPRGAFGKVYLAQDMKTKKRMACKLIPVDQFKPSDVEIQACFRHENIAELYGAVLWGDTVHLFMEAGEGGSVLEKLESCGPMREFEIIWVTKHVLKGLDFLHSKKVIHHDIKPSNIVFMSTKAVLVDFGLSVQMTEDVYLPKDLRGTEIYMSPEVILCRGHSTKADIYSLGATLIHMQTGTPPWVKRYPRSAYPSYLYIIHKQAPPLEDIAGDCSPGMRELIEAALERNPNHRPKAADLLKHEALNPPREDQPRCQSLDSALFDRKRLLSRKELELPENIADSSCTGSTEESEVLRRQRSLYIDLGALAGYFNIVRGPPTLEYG

Molecule | effect on Myc-TPL-2 MEK kinase activity [1] | binding to the TPL-2 peptide (affinity constants) [2]
p105498-969(ΔDD): recombinant p105 498-969 protein which lacks the p105 death domain (protein) QDNLFLEKAMQLAKRHANALFDYAVTGDVKMLLAVQRHLTAVQDENGDSVLHLAIIHLHSQLVRDLLEVTSGLISDDIINMRNDLYQTPLHLAVITKQEDVVEDLLRAGADLSLLDRLGNSVLHLAAKEGHDKVLSILLKHKKAALLLDHPNGDGLNAIHLAMMSNSLPCLLLLVAAGADVNAQEQKSGRTALHLAVEHDNISLAGCLLLEGDAHVDSTTYDGTTPLHIAAGRGSTRLAALLKAAGADPLVENFEPLYDLDDSWENAGEDEGVVPGTTPLDMATSWQVFDILNGKPYEPEFTSDDSPVKTTSQAHSLPLSPASTRQQIDELRDSDSVCDSGVETSFRKLSFTESLTSGASLLTLNKMPHDYGQEGPLEGKI | did not affect | –
p105541-802: recombinant p105 protein, residues 541-802 (protein) DENGDSVLHLAIIHLHSQLVRDLLEVTSGLISDDIINMRNDLYQTPLHLAVITKQEDVVEDLLRAGADLSLLDRLGNSVLHLAAKEGHDKVLSILLKHKKAALLLDHPNGDGLNAIHLAMMSNSLPCLLLLVAAGADVNAQEQKSGRTALHLAVEHDNISLAGCLLLEGDAHVDSTTYDGTTPLHIAAGRGSTRLAALLKAAGADPLVENFEPLYDLDDSWENAGEDEGVVPGTTPLDMATSWQVFDILNGKPYEPEFTSDD | – | did not detectably bind

From patent US20030219427A1, “TPL-2/COT kinase and methods of use” (priority 1998, published 2003)
